Source: patent publication US20250084173A1 (4B TECHNOLOGIES SUZHOU, published 2025)

Key:
[1] = molecular target: T1, recombinant human TrkA ECD protein (human, UniProt P04629 33-423); assay: ELISA on recombinant TrkA ECD proteins (FIG. 1b)
T1 construct: extracellular domain; also called hTrkA-ECD-hFc; hTrkA; not shown: C-terminal human Fc tag (hFc)

[2] = molecular target: T2, recombinant mouse TrkA ECD protein (mouse, UniProt Q3UFB7 34-420); assay: ELISA on recombinant TrkA ECD proteins (FIG. 1b)
T2 construct: extracellular domain; also called mTrkA-ECD-hFc; murine TrkA; not shown: C-terminal human Fc tag (hFc)
T2 sequence (Q3UFB7 34-420): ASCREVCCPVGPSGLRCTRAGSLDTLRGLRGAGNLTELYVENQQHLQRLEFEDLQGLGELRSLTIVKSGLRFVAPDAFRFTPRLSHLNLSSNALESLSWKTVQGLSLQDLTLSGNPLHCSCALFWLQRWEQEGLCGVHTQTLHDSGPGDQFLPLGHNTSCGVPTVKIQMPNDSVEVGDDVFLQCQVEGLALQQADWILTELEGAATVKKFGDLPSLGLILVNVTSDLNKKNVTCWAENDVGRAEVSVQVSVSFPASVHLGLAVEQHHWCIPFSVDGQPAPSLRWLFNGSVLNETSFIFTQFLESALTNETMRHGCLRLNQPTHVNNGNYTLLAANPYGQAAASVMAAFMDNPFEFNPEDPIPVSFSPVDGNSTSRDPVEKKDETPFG

T1 sequence (P04629 33-423): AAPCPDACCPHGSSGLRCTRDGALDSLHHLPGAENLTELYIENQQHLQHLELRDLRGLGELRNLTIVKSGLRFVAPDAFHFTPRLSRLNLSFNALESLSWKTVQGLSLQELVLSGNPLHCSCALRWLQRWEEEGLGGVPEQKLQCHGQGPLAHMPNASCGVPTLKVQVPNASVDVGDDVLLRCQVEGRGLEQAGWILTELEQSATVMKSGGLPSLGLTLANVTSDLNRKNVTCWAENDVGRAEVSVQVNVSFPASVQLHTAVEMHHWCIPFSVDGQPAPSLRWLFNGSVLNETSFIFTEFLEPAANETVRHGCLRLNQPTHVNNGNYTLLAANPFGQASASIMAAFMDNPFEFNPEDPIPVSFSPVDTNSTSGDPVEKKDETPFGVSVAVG

binding result [1]: binds
binding result [2]: binds
B1: 27A6 (antibody, mouse IgG1, V domains shown)
VH: QVQLQQSGAELMEPGASVKISCKATGYTFSRYWIEWVQQRPGHGLEWIGEILPGSGTTNYNENFRGKATFTADTSSNTVYMQLISLTSEDSAVYYCARSYYGDFDAYWGQGTLVTVSA
VL: QAVVTQESALTTSPGETVTLTCRSSIGAVTTSNHANWVQEKPDHLFTGLIGGTNNRAPGVPARFSGSLIGDKAVLTITGAQTEDEAIYFCALWYSNHWVFGGGTKLTVLG
notes: also called TrkA antibody; TrkA antibody of the present application
